Measurements from patent US20090202520A1.

Biological target: serum amyloid P (SAP) (human), P02743
Test: SPR (Biacore X100), SAP on CM5 chip, soluble receptor flowed, single cycle kinetics, KD = Kd/Ka
Conditions: remark: other sources report otherwise

serum amyloid P (SAP) (human), P02743, sequence (P02743 20-223): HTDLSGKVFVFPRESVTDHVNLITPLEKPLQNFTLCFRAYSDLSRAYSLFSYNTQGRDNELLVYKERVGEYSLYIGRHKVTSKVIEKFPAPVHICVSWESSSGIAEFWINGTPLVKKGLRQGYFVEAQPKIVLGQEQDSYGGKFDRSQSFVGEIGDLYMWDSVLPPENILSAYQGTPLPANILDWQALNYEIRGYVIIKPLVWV

B1: soluble recombinant FcγRIIIB (sFcγRIIIB), O75015 17-200 (receptor, UniProt O75015 17-200, looked up, not shown: small tags and cut ends)
chain: GMRTEDLPKAVVFLEPQWYSVLEKDSVTLKCQGAYSPEDNSTQWFHNENLISSQASSYFIDAATVNDSGEYRCQTNLSTLSDPVQLEVHIGWLLLQAPRWVFKEEDPIHLRCHSWKNTALHKVTYLQNGKDRKYFHHNSDFHIPKATLKDSGSYFCRGLVGSKNVSSETVNITITQGLAVSTIS
Kd: 0.4 nM
